From patent publication US20240150451A1 (Janssen / Centocor, published 2024)
Residue numbers refer to the chain shown, from its start.

How the values were obtained:
[1] = biological target: T1, recombinant full-length tau 2N4R (control tau) (human, UniProt P10636 2-758); experiment: direct ELISA on full-length 2N4R Tau coated at 1 ng/mL
T1 construct: also called recombinant WT (2N4R) tau; Rec; Tau
Description: (§1) Binding to recombinant WT (2N4R) tau was analyzed by ELISA. Full-length Tau protein (1 ng/mL or 10 ng/mL) was directly coated to the plate and incubated with different concentrations of either recombinantly- or hybridoma-produced PT/66, PT/69 or hTau/60 antibodies (FIG. 1). […] No substantial difference was observed between binding profiles of recombinant and hybridoma produced antibodies.

[2] = biological target: T1, recombinant full-length tau 2N4R …; experiment: direct ELISA on full-length 2N4R Tau coated at 10 ng/mL
Description: as §1

[3] = biological target: T2, Tau peptide Start 415 Stop 434; experiment: Pepscan ELISA on an array of linear 20-mer Tau 441 peptides; parameters: peptide ELISA signal (no name or unit printed): unit not given here
T2 peptide: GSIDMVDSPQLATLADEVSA
Source text: (§2) An amino functionalized polypropylene support was obtained by grafting with a proprietary hydrophilic polymer formulation, followed by reaction with t-butyloxycarbonyl-hexamethylenediamine (BocHMDA) using dicyclohexylcarbodiimide (DCC) with N-hydroxybenzotriazole (HOBt), and subsequent cleavage of the Boc-groups using trifluoroacetic acid (TFA). Standard Fmoc-peptide synthesis was used to synthesize peptides on the amino-functionalized solid support by custom modified JANUS liquid handling stations (Perkin Elmer). Synthesis of structural mimics was done using Pepscan's proprietary Chemically Linked Peptides on Scaffolds (CLIPS) technology. CLIPS technology allows to structure peptides into single loops, double loops, triple loops, sheet-like folds, helix-like folds, and combinations thereof. CLIPS templates are coupled to cysteine residues. The side-chains of multiple cysteines in the peptides are coupled to one or two CLIPS templates. For example, a 0.5 mM solution of the P2 CLIPS (2,6-bis(bromomethyl)pyridine) is dissolved in ammonium bicarbonate (20 mM, pH 7.8)/acetonitrile (1:3 (v/v)). This solution is added onto the peptide arrays. The CLIPS template will bind to side-chains of two cysteines as present in the solid-phase bound peptides of the peptide-arrays (455 wells plate with 3 μl wells). The peptide arrays are gently shaken in the solution for 30 to 60 minutes while completely covered in solution. Finally, the peptide arrays are washed extensively with excess of H₂O and sonicated in disrupt-buffer containing 1% SDS/0.1% beta-mercaptoethanol in PBS (pH 7.2) at 70° C. for 30 minutes, followed by sonication in H₂O for another 45 minutes. The T3 CLIPS carrying peptides were made in a similar way but now with three cysteines.
(§3) The binding of antibodies (recombinantly expressed as IgG2a) to each of the synthesized peptides was tested in a pepscan-based ELISA. The peptide arrays were incubated with primary antibody solution (overnight at 4° C.). After washing, the peptide arrays were incubated with a 1/1000 dilution of an appropriate antibody peroxidase conjugate (SBA; Table 4) for one hour at 25° C. After washing, the peroxidase substrate 2,2′-azino-di-3-ethylbenzthiazoline sulfonate (ABTS) and 20 μl/ml of 3 percent H₂O₂ were added. After one hour, the color development was measured.

[4] = biological target: T3, Tau peptide Start 417 Stop 436; experiment: as above; parameters: peptide ELISA signal (no name or unit printed): unit not given here
T3 peptide: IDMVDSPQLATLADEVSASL
Source text: as §2, §3

[5] = biological target: T4, Tau peptide Start 419 Stop 438; experiment: as above; parameters: peptide ELISA signal (no name or unit printed): unit not given here
T4 peptide: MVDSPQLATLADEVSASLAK
Source text: as §2, §3

[6] = biological target: T5, Tau peptide Start 421 Stop 440; experiment: as above; parameters: peptide ELISA signal (no name or unit printed): unit not given here
T5 peptide: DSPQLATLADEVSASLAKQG
Source text: as §2, §3

[7] = biological target: T6, Tau peptide Start 422 Stop 441; experiment: as above; parameters: peptide ELISA signal (no name or unit printed): unit not given here
T6 peptide: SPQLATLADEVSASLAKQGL
Source text: as §2, §3

[8] = biological target: Tau peptide Start 1 Stop 20 (Synthetic linear peptide immobilised on a Pepscan array; the attachment to the array cannot be carried by the letters.); experiment: as above; parameters: peptide ELISA signal (no name or unit printed): unit not given here
Sequence of Tau peptide Start 1 Stop 20 (Synthetic linear peptide immobilised on a Pepscan array; the attachment to the array cannot be carried by the letters.) (peptide, as listed by the source limits assumed): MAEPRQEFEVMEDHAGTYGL
Source text: as §2, §3

[9] = biological target: T7, Tau peptide Start 3 Stop 22 (Synthetic linear peptide immobilised on a Pepscan array; the attachment to the array cannot be carried by the letters.); experiment: as above; parameters: peptide ELISA signal (no name or unit printed): unit not given here
T7 peptide: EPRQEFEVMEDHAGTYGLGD
Source text: as §2, §3

[10] = biological target: T8, Tau peptide Start 411 Stop 430; experiment: as above; parameters: peptide ELISA signal (no name or unit printed): unit not given here
T8 peptide: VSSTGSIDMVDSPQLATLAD
Source text: as §2, §3

[11] = biological target: T9, Tau peptide Start 413 Stop 432; experiment: as above; parameters: peptide ELISA signal (no name or unit printed): unit not given here
T9 peptide: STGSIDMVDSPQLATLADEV
Source text: as §2, §3

[12] = biological target: T10, PHF-tau (paired helical filament tau; sarcosyl insoluble prep from human AD brain) (human, UniProt P10636-8 2-441, limits assumed, hyper-phosphorylated (sites not specified)); experiment: SPR (ProteOn), mAb on PHF-tau, bivalent analyte fit; apparent affinity (avidity)
T10 construct: also called aggregated PHF Tau; aggregated tau (AD brain)
Description: (§4) The interactions with PHF-tau and recombinant tau were assessed by SPR on ProteOn (Bio-Rad, Hercules, CA) instrument for PT66, PT69, hTau60 anti-tau antibodies and their corresponding Fab fragments. Because of the multimeric/aggregated nature of PHF-tau with multiple copies of the epitope, and the bivalent nature of IgGs, mAb affinity was influenced by avidity in this study format. Fab affinity provides information on the intrinsic affinity of the antibody. Representative sensorgrams of mAbs and their Fab fragments binding to PHF Tau are shown in FIG. 3 and a summary is represented in Table 1 below. HT7 was used as a reference.

[13] = biological target: T10, PHF-tau (paired helical filament tau; …); experiment: SPR (ProteOn), Fab on PHF-tau, 1:1 Langmuir fit
Description: as §4

[14] = biological target: T1, recombinant full-length tau 2N4R …; experiment: SPR (ProteOn), Fab on recombinant full-length tau, 1:1 Langmuir fit
Description: as §4

B1: PT/66 hybridoma (antibody, V domains shown)
VH: QVQLQQPGAELVKPGASVKMSCKASGYTFTSYWITWVKQRPGQGLEWIGDIHPGRGSTKSNEKFKSKATLTVDTSSSTAYMQFSSLTSEDSAVYYCARRWGFDYWGQGTTLTVSS
VL: DIVITQDELSNPVTSGESVSISCRSSKSLLYKDGKTYLNWFLQRPGQSPQLLIYLMSTRASGVSDRFSGSGSGTDFTLEISRVKAEDVGVYYCQQLVDYPLTFGAGTKLELK
notes: parent of m2; also called hybridoma-produced PT/66
[1]
  EC50 (read off the curve): ~0.01 µg/mL
[2]
  EC50 (read off the curve): ~0.005 µg/mL

B2: hTau60 monoclonal antibody (recombinant, mouse IgG2a/kappa) (antibody, V domains shown)
VH: EVQLQQSGPELVKPGTSVKISCKVFGYTFTDYYMNWVKQSHGKSLEWIGDINPDNGETTYNQKFKGKATLTVDKSSSTAYMELRSLTSEDSAVYYCAKGATFVYWGQGTLVTVSA
VL: DVVMTQTPLSLPVSLGDQASISCISSQSLVHSTGTTFLHWFLQKPGQSPKLLIYKVSNRFSGVPDRFSGSGSGTDFTLKISRVEAEDLGFYFCSQSTYFPLTFGSGTKLEIKR
notes: also called hTau60 (PT1B469)
[1]
  EC50 (read off the curve): ~0.01 µg/mL
[2]
  EC50 (read off the curve): ~0.01 µg/mL
[3]
  binding result: no binding
  peptide ELISA signal (no name or unit printed): 24
[4]
  binding result: no binding
  peptide ELISA signal (no name or unit printed): 48
[5]
  binding result: no binding
  peptide ELISA signal (no name or unit printed): 45
[6]
  peptide ELISA signal (no name or unit printed): 2910
[7]
  peptide ELISA signal (no name or unit printed): 2920
[8]
  peptide ELISA signal (no name or unit printed): 48
[9]
  peptide ELISA signal (no name or unit printed): 44
[10]
  peptide ELISA signal (no name or unit printed): 36
[11]
  binding result: no binding
  peptide ELISA signal (no name or unit printed): 46
[12]
  Kd: 0.069 nM

B3: hTau/60 hybridoma (antibody, V domains shown)
VH: B2 VH
VL: DVVMTQTPLSLPVSLGDQASISCISSQSLVHSTGTTFLHWFLQKPGQSPKLLIYKVSNRFSGVPDRFSGSGSGTDFTLKISRVEAEDLGFYFCSQSTYFPLTFGSGTKLEIK
notes: parent of m1; also called hybridoma-produced hTau/60
[1]
  EC50 (read off the curve): ~0.005 µg/mL
[2]
  EC50 (read off the curve): ~0.005 µg/mL

B4: PT66 monoclonal antibody (recombinant, mouse IgG2a/kappa) (antibody, V domains shown)
VH: B1 VH
VL: DIVITQDELSNPVTSGESVSISCRSSKSLLYKDGKTYLNWFLQRPGQSPQLLIYLMSTRASGVSDRFSGSGSGTDFTLEISRVKAEDVGVYYCQQLVDYPLTFGAGTKLELKR
notes: also called PT66 (PT1B545)
[1]
  EC50 (read off the curve): ~0.04 µg/mL
[2]
  EC50 (read off the curve): ~0.01 µg/mL
[3]
  peptide ELISA signal (no name or unit printed): 2930
[4]
  peptide ELISA signal (no name or unit printed): 2940
[5]
  peptide ELISA signal (no name or unit printed): 2930
[6]
  peptide ELISA signal (no name or unit printed): 2930
[7]
  peptide ELISA signal (no name or unit printed): 2950
[8]
  peptide ELISA signal (no name or unit printed): 40
[9]
  peptide ELISA signal (no name or unit printed): 45
[10]
  peptide ELISA signal (no name or unit printed): 50
[11]
  peptide ELISA signal (no name or unit printed): 2520
[12]
  Kd: 0.056 nM

B5: PT69 monoclonal antibody (recombinant, mouse IgG2a/kappa) (antibody, V domains shown)
VH: B1 VH with S31N, H52Y, R55S, S57R, S66N, V72A, F83L, A97T, F102L
VL: B4 VL with S26N
notes: also called PT69/PT87; PT69 (PT1B548)
[3]
  peptide ELISA signal (no name or unit printed): 2830
[4]
  peptide ELISA signal (no name or unit printed): 2920
[5]
  peptide ELISA signal (no name or unit printed): 2920
[6]
  peptide ELISA signal (no name or unit printed): 2930
[7]
  peptide ELISA signal (no name or unit printed): 2930
[8]
  peptide ELISA signal (no name or unit printed): 30
[9]
  peptide ELISA signal (no name or unit printed): 38
[10]
  peptide ELISA signal (no name or unit printed): 43
[11]
  peptide ELISA signal (no name or unit printed): 1380

B6: hTau60 Fab (chimeric: mouse variable domains, human IgG1/kappa constant domains, His tag) (Fab, V domains shown)
VH: B2 VH
VL: B3 VL
notes: Fab expressed in HEK293F cells; also called hTau60 Fab fragment; not shown: His tag at the C-terminus of the heavy chain; human kappa light chain constant domain
[13]
  Kd: 0.427 nM
[14]
  Kd: 0.026 nM

B7: PT66 Fab (chimeric: mouse variable domains, human IgG1/kappa constant domains, His tag) (Fab, V domains shown)
VH: B1 VH
VL: B1 VL
notes: Fab expressed in HEK293F cells; also called PT66 Fab fragment; not shown: His tag at the C-terminus of the heavy chain; human kappa light chain constant domain
[13]
  Kd: 0.514 nM
[14]
  Kd: 0.04 nM
